Source: US9375425B2, “Combination of a C-Met antagonist and an aminoheteroaryl compound for the treatment of cancer” (Pierre Fabre Medicament, priority 2008, dated 2016)
Where two headings read alike, the source gives them in different places.

Assays:
NCI-H441 cells = test: In vivo activity of a combination of 224G11 and PF-02341066, NCI-H441 xenograft; set-up: species or system Athymic nude mice; conditions: day 53 post first injection; 224G11 i.p. 2 mg then 1 mg twice a week; PF-2341066 50 mg/kg p.o.
Procedure: NCI-H441 cells from ATCC were routinely cultured in RPMI 1640 medium, 10% FCS, 1% L-Glutamine. Cells were split two days before engraftment so that they were in exponential phase of growth. Ten million NCI-H441 cells were engrafted to Athymic nude mice. […] For the antibody treatment, mice were treated i.p. with a loading dose of 2 mg of 224G11 Mab/mouse and then twice a week with 1 mg of antibody/mouse. 50 mg/kg of PF-2341066 was administered p.o. (oral gavage), daily for a week and then 5 days a week with a double dose the fifth day. The group of mice receiving both 224G11 and PF-2341066 was treated following the same modalities as the one described above for each compound. Tumor volume was measured twice a week and calculated by the formula: […]×length×width×height and animal weights were monitored every day over the period of treatment.
Statistical analysis was performed at each measured time using a Mann-Whitney test. In this experiment, mice of the control group were sacrificed on day 53 for ethical reasons. At day 53 post first injection, the average tumor volume of single modality treated groups is reduced by 64%, 73% and 93% for 224G11, PF-2341066 and 224G11+PF-2341066 respectively. […] No significant differences were observed between the 2 single modality treatment.

NCI-H441 NSCLC = test: In vivo activity of 224G11 and PF-02341066 as single treatments, NCI-H441 s.c. xenograft; conditions: NCI-H441 s.c. in Athymic nude mice; for tumors growth of treated mice (FIG. 1): 224G11 i.p. 2 mg loading dose then 1 mg twice a week, PF-02341066 50 mg/kg p.o.; for antitumoral activity, single treatments compared with each other: same regimens
Procedure: In order to verify that the NCI-H441 in vivo model available in the laboratory is sensible to both the 224G11 antibody and the PF-2341066 compound, immunocompromised mice engrafted subcutaneously with NCI-H441 were used. Briefly, NCI-H441 NSCLC cells from ATCC were cultured in RPMI 1640 medium, 10% FCS, 1% L-Glutamine. Cells were split two days before engraftment so that they were in exponential phase of growth. Ten million NCI-H441 cells were injected s.c. to Athymic nude mice. […] For the antibody treatment, mice were treated i.p. with a loading dose of 2 mg of 224G11 Mab/mouse and then twice a week with 1 mg of antibody/mouse. 50 mg/kg of PF-02341066 was administered p.o. (oral gavage), daily for a week and then 5 days a week with a double dose the fifth day. Treatment lasted during the whole experiment. Tumor volume was measured twice a week and calculated by the formula: π/6×length×width×height.

c-Met mutations = conditions: cited from earlier work
[1] = In vivo activity of the anti-c-Met antibodies
c-Met = c-Met (Homo sapiens, UniProt P08581); test: Inhibition of c-Met dimerization by the antibodies
c-Met, sequence (P08581 25-1390): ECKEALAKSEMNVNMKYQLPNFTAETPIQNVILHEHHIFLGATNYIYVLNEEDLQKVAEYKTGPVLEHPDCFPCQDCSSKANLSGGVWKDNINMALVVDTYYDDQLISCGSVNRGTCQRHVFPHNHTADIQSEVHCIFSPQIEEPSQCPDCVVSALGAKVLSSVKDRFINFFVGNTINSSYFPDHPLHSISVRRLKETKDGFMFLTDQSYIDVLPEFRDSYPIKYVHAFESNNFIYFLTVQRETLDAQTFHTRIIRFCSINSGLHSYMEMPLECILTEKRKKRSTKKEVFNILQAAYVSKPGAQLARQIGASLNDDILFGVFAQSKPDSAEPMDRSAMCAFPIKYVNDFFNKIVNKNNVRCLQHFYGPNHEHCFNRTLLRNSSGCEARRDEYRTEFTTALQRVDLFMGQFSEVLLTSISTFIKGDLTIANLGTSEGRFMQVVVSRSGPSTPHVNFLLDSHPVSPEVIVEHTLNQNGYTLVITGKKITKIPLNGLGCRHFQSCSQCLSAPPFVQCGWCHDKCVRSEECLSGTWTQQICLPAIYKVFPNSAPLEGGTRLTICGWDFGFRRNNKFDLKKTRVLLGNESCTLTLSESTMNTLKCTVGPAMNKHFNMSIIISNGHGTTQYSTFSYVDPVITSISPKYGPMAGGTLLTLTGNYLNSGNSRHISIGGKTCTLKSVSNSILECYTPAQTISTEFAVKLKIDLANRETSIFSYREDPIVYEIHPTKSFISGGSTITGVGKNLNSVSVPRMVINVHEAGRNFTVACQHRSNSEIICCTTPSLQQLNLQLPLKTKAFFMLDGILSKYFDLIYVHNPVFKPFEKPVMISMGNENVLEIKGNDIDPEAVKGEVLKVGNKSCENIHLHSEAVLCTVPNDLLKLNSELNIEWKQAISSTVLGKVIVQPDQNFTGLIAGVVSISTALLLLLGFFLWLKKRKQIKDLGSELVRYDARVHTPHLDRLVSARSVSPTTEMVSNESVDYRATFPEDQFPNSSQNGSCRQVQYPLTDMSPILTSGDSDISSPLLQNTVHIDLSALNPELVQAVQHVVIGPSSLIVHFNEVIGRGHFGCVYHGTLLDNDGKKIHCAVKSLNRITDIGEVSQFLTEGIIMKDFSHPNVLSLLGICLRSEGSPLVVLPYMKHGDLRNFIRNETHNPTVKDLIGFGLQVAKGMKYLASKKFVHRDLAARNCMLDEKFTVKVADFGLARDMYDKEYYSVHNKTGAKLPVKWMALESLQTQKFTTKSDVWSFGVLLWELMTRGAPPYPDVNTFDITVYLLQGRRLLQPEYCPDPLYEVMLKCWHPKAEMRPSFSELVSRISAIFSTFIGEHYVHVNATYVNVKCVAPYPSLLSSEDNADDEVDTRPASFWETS

Molecule | average tumor volume reduced by (NCI-H441 cells) | tumors growth of treated mice (FIG. 1) (NCI-H441 NSCLC) | antitumoral activity, single treatments compared with each other (NCI-H441 NSCLC) | activity in vivo [1] | c-Met dimerization (c-Met) | also measured
C[C@@H](Oc1cc(-c2cnn(C3CCNCC3)c2)cnc1N)c1c(Cl)ccc(F)c1Cl [PF-02341066, 3-[(R)-1-(2,6-Dichloro-3-fluoro-phenyl)-ethoxy]-5-(1-piperidin-4-yl-1H-pyrazol-4-yl)-pyridin-2-ylamine, reference compound] | 73% | significant difference in tumors growth | comparable antitumoral activities |  |  | 
Cc1[nH]c(/C=C2\C(=O)Nc3ccc(S(=O)(=O)N(C)c4cccc(Cl)c4)cc32)c(C)c1C(=O)N1CCN(C)CC1 [SU11274] |  |  |  |  |  | sensitivity of c-Met mutation to the agent (c-Met mutations; H1112Y mutation, decreased cell growth and motility): sensitive; sensitivity of c-Met mutation to the agent (c-Met mutations; L1213V mutation): resistant; sensitivity of c-Met mutation to the agent (c-Met mutations; M1268T mutation, decreased cell growth and motility): sensitive; sensitivity of c-Met mutation to the agent (c-Met mutations; Y1248 mutation): resistant
224G11: monoclonal antibody antagonist to c-Met secreted by murine hybridoma CNCM I-3731; heavy chain SEQ ID No. 18, light chain SEQ ID No. 21 (antibody, V domains shown, mus musculus) VH: EVQLQQSGPELVKPGASVKISCKTSGYIFTAYTMHWVRQSLGESLDWIGGIKPNNGLANYNQKFKGKATLTVDKSSSTAYMDLRSLTSEDSAVYYCARSEITTEFDYWGQGTALTVSS VL: DIVLTQSPASLAVSLGQRATISCRASESVDSYANSFMHWYQQKPGQPPKLLIYRASNLESGIPARFSGSGSRTDFTLTINPVEADDVATYYCQQSKEDPLTFGSGTKLEMK | 64% | significant difference in tumors growth | comparable antitumoral activities | active in vivo | inhibit the c-Met dimerization | 
227H1: monoclonal antibody antagonist to c-Met, hybridoma CNCM I-3732; heavy chain SEQ ID No. 19, light chain SEQ ID No. 22 (antibody, V domains shown, mus musculus) VH: EVQLQQSGPELVKPGASMKISCKASGYSFTDYTLNWVKQSHGKTLEWIGLINPYNGGTTYNQKFKGKATLTVDKSSSTAYMELLSLTSEDSAVYYCAREEITKDFDFWGQGTTLTVSS VL: GIVLTQSPASLAVSLGQRATISCRVSESIDTYGNSFIHWYQQKPGQPPKLLIYRASNLESGIPARFSGSGSRTDFTLTINPVEADDSATYYCQQSNEDPFTFGSGTKLEMK |  |  |  | active in vivo | inhibit the c-Met dimerization | 
223C4: monoclonal antibody antagonist to c-Met, hybridoma CNCM I-3786; heavy chain SEQ ID No. 20, light chain SEQ ID No. 23 (antibody, V domains shown, mus musculus) VH: EVLLQQSGPELVKPGASVKIPCKASGYTFTDYNMDWVKQSHGMSLEWIGDINPNNGGTIFNQKFKGKATLTVDKSSSTAYMELRSLTSEDTAVYYCARGRYVGYYYAMDYWGQGTSVTVSS VL: DIQMTQSPASLSVSVGETVTITCRASENIYSNLAWYQQKQGKSPQLLVYAATNLVDGVPSRFSGSGSGTQYSLKINSLQSEDFGSYYCQHFWGPPYTFGGGTKLEIK |  |  |  | active in vivo | inhibit the c-Met dimerization | 
11E1: monoclonal antibody antagonist to c-Met, hybridoma CNCM I-3724; heavy chain SEQ ID No. 53, light chain SEQ ID No. 54 (antibody, V domains shown, mus musculus) VH: QVQLQQSGAELAKPGASVKMSCKASGYTFTSYWMNWVKQRPGQGLEWIGYINPTTGSTDYNQKLKDKATLTADKSSNTAYMQLSSLTSEDSAVYYCAIGGYGSWFAYWGQGTLVTVSA VL: QIVLTQSPAIMSASPGEKVTLTCSASSSVSSTYLYWYQQKPGSSPKLWIYTTSILASGVPARFSGSGSGTSYSLTISSMETEDAASYFCHQWSSYPFTFGSGTKLDIK |  |  |  | active in vivo | inhibit the c-Met dimerization | 
